Tested on: Escherichia coli TOP10
Assay: shrunken log2 fold change of peptide-encoding DNA abundance (4.5 h post-induction vs induction); higher = less antimicrobial activity (less host growth inhibition)
Conditions: time post-induction: 4.5 h; library: site-saturation at positions 5, 18, 19, 20
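Also: peptides expressed intracellularly from a pBAD plasmid library in pooled LB shake-flask culture, induced with 0.3% L-arabinose, DNA abundance read by NGS, three biological replicates, DESeq2 with apeglm shrinkage.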

Sequence | shrunken log2 fold change
RRIRCRPPRLPRPRPRPVAGPRP | 0.0113
RRIRCRPPRLPRPRPRPVAHPRP | -0.277
RRIRCRPPRLPRPRPRPVAPPRP | 0.436
RRIRCRPPRLPRPRPRPVARPRP | 0.255
RRIRCRPPRLPRPRPRPVFNPRP | -0.204
RRIRCRPPRLPRPRPRPVGHPRP | 0.0304
RRIRCRPPRLPRPRPRPVGRPRP | 0.422
RRIRCRPPRLPRPRPRPVGSPRP | 0.0443
RRIRCRPPRLPRPRPRPVHAPRP | 0.065
RRIRCRPPRLPRPRPRPVHDPRP | 0.141
RRIRCRPPRLPRPRPRPVKIPRP | 0.108
RRIRCRPPRLPRPRPRPVMCPRP | -0.127
RRIRCRPPRLPRPRPRPVMTPRP | -0.147
RRIRCRPPRLPRPRPRPVNKPRP | -0.196
RRIRCRPPRLPRPRPRPVPDPRP | -0.0739
RRIRCRPPRLPRPRPRPVQCPRP | 0.207
RRIRCRPPRLPRPRPRPVRCPRP | -0.00859
RRIRCRPPRLPRPRPRPVWWPRP | 0.261
RRIRCRPPRLPRPRPRPVYAPRP | -0.515
RRIRCRPPRLPRPRPRPVYEPRP | -0.342
RRIRCRPPRLPRPRPRPVYGPRP | -0.747
RRIRCRPPRLPRPRPRPWAKPRP | -0.234
RRIRCRPPRLPRPRPRPWDGPRP | 0.0877
RRIRCRPPRLPRPRPRPWDQPRP | 0.0182
RRIRCRPPRLPRPRPRPWDSPRP | -0.36

Sequence | shrunken log2 fold change
RRIRCRPPRLPRPRPRPWFFPRP | -0.24
RRIRCRPPRLPRPRPRPWFPPRP | -0.699
RRIRCRPPRLPRPRPRPWGCPRP | -0.00936
RRIRCRPPRLPRPRPRPWGVPRP | 0.122
RRIRCRPPRLPRPRPRPWHCPRP | -0.0285
RRIRCRPPRLPRPRPRPWHSPRP | 0.112
RRIRCRPPRLPRPRPRPWIEPRP | -0.123
RRIRCRPPRLPRPRPRPWIRPRP | -0.374
RRIRCRPPRLPRPRPRPWLIPRP | -0.564
RRIRCRPPRLPRPRPRPWMIPRP | -0.0852
RRIRCRPPRLPRPRPRPWMLPRP | -0.419
RRIRCRPPRLPRPRPRPWMWPRP | -0.00829
RRIRCRPPRLPRPRPRPWNCPRP | -0.142
RRIRCRPPRLPRPRPRPWNDPRP | 0.00383
RRIRCRPPRLPRPRPRPWNHPRP | -0.939
RRIRCRPPRLPRPRPRPWPVPRP | 0.215
RRIRCRPPRLPRPRPRPWQMPRP | -0.0748
RRIRCRPPRLPRPRPRPWSDPRP | -0.324
RRIRCRPPRLPRPRPRPWVHPRP | -0.169
RRIRCRPPRLPRPRPRPWVKPRP | -0.352
RRIRCRPPRLPRPRPRPWWKPRP | -0.334
RRIRCRPPRLPRPRPRPWYCPRP | -0.248
RRIRCRPPRLPRPRPRPYANPRP | -0.0471
RRIRCRPPRLPRPRPRPYAPPRP | -0.412
RRIRCRPPRLPRPRPRPYCGPRP | -0.888

Sequence | shrunken log2 fold change
RRIRCRPPRLPRPRPRPYFAPRP | -0.563
RRIRCRPPRLPRPRPRPYHMPRP | -0.56
RRIRCRPPRLPRPRPRPYIEPRP | -1.03
RRIRCRPPRLPRPRPRPYIWPRP | -0.0216
RRIRCRPPRLPRPRPRPYKIPRP | -0.785
RRIRCRPPRLPRPRPRPYLNPRP | -1.32
RRIRCRPPRLPRPRPRPYMFPRP | -1.01
RRIRCRPPRLPRPRPRPYMRPRP | -0.142
RRIRCRPPRLPRPRPRPYNLPRP | -0.986
RRIRCRPPRLPRPRPRPYNYPRP | -0.914
RRIRCRPPRLPRPRPRPYPFPRP | -0.241
RRIRCRPPRLPRPRPRPYQEPRP | -0.276
RRIRCRPPRLPRPRPRPYVEPRP | -0.942
RRIRCRPPRLPRPRPRPYWCPRP | -0.201
RRIRCRPPRLPRPRPRPYWTPRP | -0.966
RRIRCRPPRLPRPRPRPYYQPRP | -1.14
RRIRCRPPRLPRPRPRPYYYPRP | -0.346
RRIRDRPPRLPRPRPRPACKPRP | 0.00774
RRIRDRPPRLPRPRPRPAFPPRP | -0.0705
RRIRDRPPRLPRPRPRPAGKPRP | 0.0578
RRIRDRPPRLPRPRPRPAGPPRP | 0.271
RRIRDRPPRLPRPRPRPAHFPRP | 0.358
RRIRDRPPRLPRPRPRPAIHPRP | 0.00344
RRIRDRPPRLPRPRPRPAKLPRP | 0.0322
RRIRDRPPRLPRPRPRPAKVPRP | 0.114

Sequence | shrunken log2 fold change
RRIRDRPPRLPRPRPRPANPPRP | 0.234
RRIRDRPPRLPRPRPRPAPAPRP | 0.661
RRIRDRPPRLPRPRPRPAPIPRP | 0.32
RRIRDRPPRLPRPRPRPARVPRP | 0.948
RRIRDRPPRLPRPRPRPASDPRP | 0.0114
RRIRDRPPRLPRPRPRPAVIPRP | -0.0132
RRIRDRPPRLPRPRPRPAVWPRP | 1.19
RRIRDRPPRLPRPRPRPAYAPRP | 0.058
RRIRDRPPRLPRPRPRPAYEPRP | -0.0214
RRIRDRPPRLPRPRPRPCAYPRP | 0.297
RRIRDRPPRLPRPRPRPCCIPRP | 0.168
RRIRDRPPRLPRPRPRPCCQPRP | -0.0183
RRIRDRPPRLPRPRPRPCDDPRP | 0.0345
RRIRDRPPRLPRPRPRPCDHPRP | -0.0216
RRIRDRPPRLPRPRPRPCDLPRP | -0.0487
RRIRDRPPRLPRPRPRPCEAPRP | -0.0794
RRIRDRPPRLPRPRPRPCELPRP | 0.0111
RRIRDRPPRLPRPRPRPCFSPRP | -0.0275
RRIRDRPPRLPRPRPRPCGFPRP | -0.0017
RRIRDRPPRLPRPRPRPCGNPRP | 0.104
RRIRDRPPRLPRPRPRPCKEPRP | 0.00884
RRIRDRPPRLPRPRPRPCKNPRP | 0.056
RRIRDRPPRLPRPRPRPCKYPRP | 0.0244
RRIRDRPPRLPRPRPRPCLSPRP | 0.000319
RRIRDRPPRLPRPRPRPCPEPRP | -0.0682

Sequence | shrunken log2 fold change
RRIRDRPPRLPRPRPRPCPHPRP | -0.228
RRIRDRPPRLPRPRPRPCQEPRP | 0.211
RRIRDRPPRLPRPRPRPCQHPRP | -0.276
RRIRDRPPRLPRPRPRPCWCPRP | -0.00088
RRIRDRPPRLPRPRPRPCWEPRP | 0.28
RRIRDRPPRLPRPRPRPCWNPRP | -0.389
RRIRDRPPRLPRPRPRPDAQPRP | 1.21
RRIRDRPPRLPRPRPRPDDCPRP | -0.00963
RRIRDRPPRLPRPRPRPDDEPRP | 0.425
RRIRDRPPRLPRPRPRPDFHPRP | -0.139
RRIRDRPPRLPRPRPRPDFYPRP | 0.00164
RRIRDRPPRLPRPRPRPDGRPRP | 0.655
RRIRDRPPRLPRPRPRPDGWPRP | 0.965
RRIRDRPPRLPRPRPRPDHYPRP | -0.183
RRIRDRPPRLPRPRPRPDKGPRP | -0.0944
RRIRDRPPRLPRPRPRPDNQPRP | -0.105
RRIRDRPPRLPRPRPRPDRCPRP | -0.149
RRIRDRPPRLPRPRPRPDTKPRP | 0.0114
RRIRDRPPRLPRPRPRPDVCPRP | 0.833
RRIRDRPPRLPRPRPRPDVKPRP | -0.00748
RRIRDRPPRLPRPRPRPDVPPRP | 0.221
RRIRDRPPRLPRPRPRPDWPPRP | -0.0123
RRIRDRPPRLPRPRPRPDWQPRP | 0.252
RRIRDRPPRLPRPRPRPDWRPRP | 0.183
RRIRDRPPRLPRPRPRPDYHPRP | -0.0139

Sequence | shrunken log2 fold change
RRIRDRPPRLPRPRPRPECHPRP | 0.479
RRIRDRPPRLPRPRPRPECIPRP | 0.0163
RRIRDRPPRLPRPRPRPEDPPRP | 0.439
RRIRDRPPRLPRPRPRPEENPRP | 1.11
RRIRDRPPRLPRPRPRPEFQPRP | 0.4
RRIRDRPPRLPRPRPRPEGIPRP | -0.0215
RRIRDRPPRLPRPRPRPEGVPRP | 0.166
RRIRDRPPRLPRPRPRPEHKPRP | 0.0114
RRIRDRPPRLPRPRPRPEHNPRP | 0.14
RRIRDRPPRLPRPRPRPEIAPRP | 1.31
RRIRDRPPRLPRPRPRPEIFPRP | -0.0297
RRIRDRPPRLPRPRPRPEKEPRP | 0.127
RRIRDRPPRLPRPRPRPEKGPRP | 0.71
RRIRDRPPRLPRPRPRPELGPRP | 1.53
RRIRDRPPRLPRPRPRPENCPRP | -0.0102
RRIRDRPPRLPRPRPRPEPKPRP | 1.4
RRIRDRPPRLPRPRPRPEQTPRP | 0.0162
RRIRDRPPRLPRPRPRPERHPRP | 1.06
RRIRDRPPRLPRPRPRPERPPRP | 0.0268
RRIRDRPPRLPRPRPRPERVPRP | 0.388
RRIRDRPPRLPRPRPRPETTPRP | 0.0986
RRIRDRPPRLPRPRPRPEVCPRP | 0.0705
RRIRDRPPRLPRPRPRPEVTPRP | -0.000921
RRIRDRPPRLPRPRPRPEVVPRP | -0.00213
RRIRDRPPRLPRPRPRPEWFPRP | 0.257
